Test results published in publication PMC8067440 (Journal of Personalized Medicine, 2021).
Numbering of substitutions follows the chain as printed. Names may count otherwise.

Legend:
[1] = target: artificial monomeric form of alanine:glyoxylate aminotransferase on the major allele (MMa), R118A/F238S/F240S, recombinant purified (human) (UniProt P21549); test: SEC; holo-form, in the presence of saturating PLP; Superdex 200 10/300 GL, room temperature, KP 0.1 M, pH 7.4; samples at different concentrations incubated overnight at 25 °C; percent dimer from peak areas fitted; dimer to monomers
[2] = target: artificial monomeric form of alanine:glyoxylate aminotransferase on the major allele (MMa), R118A/F238S/F240S, recombinant purified (human) (UniProt P21549); test: SEC; apo-form; Superdex 200 10/300 GL, room temperature, KP 0.1 M, pH 7.4; samples at different concentrations incubated overnight at 25 °C; percent dimer from peak areas fitted; dimer to monomers
[3] = target: T1, DMa-FlAsH (row MMa-FlAsH) (Homo sapiens, UniProt P21549, INS254CCPGCC); test: intrinsic fluorescence quenching of apoenzyme, tight-binding quadratic fit; details: 0.1 μM apoenzyme, 24 h incubation, PLP 0.01–10 μM
T1 construct: gene AGXT; full length with CCPGCC FlAsH motif inserted in a surface loop, expressed in E. coli BL21(DE3), purified on HisPrep FF (His-tagged)
T1 sequence (P21549 with tags, fused parts or gaps INS254CCPGCC): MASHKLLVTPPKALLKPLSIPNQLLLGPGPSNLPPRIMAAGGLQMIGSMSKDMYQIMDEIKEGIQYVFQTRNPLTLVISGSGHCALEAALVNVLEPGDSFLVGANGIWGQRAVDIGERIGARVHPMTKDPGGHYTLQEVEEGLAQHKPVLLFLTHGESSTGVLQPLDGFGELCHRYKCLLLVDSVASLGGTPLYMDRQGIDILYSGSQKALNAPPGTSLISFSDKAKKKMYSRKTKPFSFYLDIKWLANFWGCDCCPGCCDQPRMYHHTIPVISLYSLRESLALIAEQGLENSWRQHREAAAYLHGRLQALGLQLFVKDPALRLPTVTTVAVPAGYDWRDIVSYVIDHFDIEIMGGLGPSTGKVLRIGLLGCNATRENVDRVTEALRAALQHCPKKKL
Method: intrinsic fluorescence quenching of apoenzyme, tight-binding quadratic fit on DMa-FlAsH (row MMa-FlAsH) | The KD(PLP) of DMa-FlAsH was calculated by measuring the intrinsic fluorescence quenching

[4] = target: T2, AGT (DMa, major allele) (Homo sapiens, UniProt P21549, F238S/F240S/I340M/P11L/R118A); test: not described in detail here for MMi; format: binding; details: read-out: KD(PLP)
T2 construct: gene AGXT; full length, expressed in E. coli BL21(DE3), purified on HisPrep FF (His-tagged, removal not mentioned)
T2 sequence (P21549 1-392 P11L/R118A/F238S/F240S/I340M): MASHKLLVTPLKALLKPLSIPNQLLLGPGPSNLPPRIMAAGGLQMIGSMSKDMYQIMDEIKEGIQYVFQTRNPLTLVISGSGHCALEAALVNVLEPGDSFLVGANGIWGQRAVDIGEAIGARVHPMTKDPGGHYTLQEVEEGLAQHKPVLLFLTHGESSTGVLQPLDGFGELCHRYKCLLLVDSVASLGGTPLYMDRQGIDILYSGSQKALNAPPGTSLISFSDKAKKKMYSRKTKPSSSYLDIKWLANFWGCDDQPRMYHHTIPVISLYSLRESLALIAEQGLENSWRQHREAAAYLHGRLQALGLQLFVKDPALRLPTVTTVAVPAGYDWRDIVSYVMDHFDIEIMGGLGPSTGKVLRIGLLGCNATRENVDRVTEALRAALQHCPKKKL
Text: not described in detail here for MMi on AGT (DMa, major allele; rows DMi, MMa, MMi)

[5] = target: T3, DMa-FlAsH (row MMa-FlAsH) (Homo sapiens, UniProt P21549, R118A/F238S/F240S/INS254CCPGCC); test: CD signal at […] nm, tight-binding quadratic fit; details: 10 μM apoenzyme, 24 h incubation, PLP 1–300 μM
T3 construct: gene AGXT; full length with CCPGCC FlAsH motif inserted in a surface loop, expressed in E. coli BL21(DE3), purified on HisPrep FF (His-tagged)
T3 sequence (P21549 with tags, fused parts or gaps R118A/F238S/F240S/INS254CCPGCC): T1 sequence (P21549 with tags, fused parts or gaps INS254CCPGCC) with R118A, F238S, F240S

[6] = target: T4, AGT (DMa, major allele) (Homo sapiens, UniProt P21549, F238S/F240S/R118A); test: CD signal at […] nm, tight-binding quadratic fit; details: read-out: KD(PLP)
T4 construct: gene AGXT; full length, expressed in E. coli BL21(DE3), purified on HisPrep FF (His-tagged, removal not mentioned)
T4 sequence (P21549 1-392 R118A/F238S/F240S): T2 sequence (P21549 1-392 P11L/R118A/F238S/F240S/I340M) with L11P, M340I

[7] = target: T5, AGT (DMa, major allele) (Homo sapiens, UniProt P21549); test: not described here for DMa; format: binding; details: read-out: KD(PLP)
T5 construct: gene AGXT; full length, expressed in E. coli BL21(DE3), purified on HisPrep FF (His-tagged, removal not mentioned)
T5 sequence (P21549 1-392): T2 sequence (P21549 1-392 P11L/R118A/F238S/F240S/I340M) with L11P, A118R, S238F, S240F, M340I
Text: not described here for DMa on AGT (DMa, major allele; rows DMi, MMa, MMi)

[8] = target: T6, AGT (DMa, major allele) (Homo sapiens, UniProt P21549, I340M/P11L); test: not described here for DMi; format: binding; details: read-out: KD(PLP)
T6 construct: gene AGXT; full length, expressed in E. coli BL21(DE3), purified on HisPrep FF (His-tagged, removal not mentioned)
T6 sequence (P21549 1-392 P11L/I340M): T2 sequence (P21549 1-392 P11L/R118A/F238S/F240S/I340M) with A118R, S238F, S240F
Text: not described here for DMi on AGT (DMa, major allele; rows DMi, MMa, MMi)

[9] = target: the molecule itself; test: SEC; holo-form, in the presence of saturating PLP; Superdex 200 10/300 GL, room temperature, KP 0.1 M, pH 7.4; samples at different concentrations incubated overnight at 25 °C; percent dimer from peak areas fitted; dimer to monomers
[10] = target: the molecule itself; test: SEC; apo-form; Superdex 200 10/300 GL, room temperature, KP 0.1 M, pH 7.4; samples at different concentrations incubated overnight at 25 °C; percent dimer from peak areas fitted; dimer to monomers

Molecule: artificial monomeric form of alanine:glyoxylate aminotransferase on the major allele (MMa), R118A/F238S/F240S, recombinant purified (from UniProt P21549 1-392) (enzyme)
- Kd [1]: 1.5 µM
- Kd [2]: 4.1 µM

Molecule: Cc1ncc(COP(=O)(O)O)c(C=O)c1O [PLP]
- Kd [3]: 0.25 ± 0.03 µM
- Kd [4]: 4.4 ± 0.5 µM
- Kd [5]: 7.2 ± 1.1 µM
- Kd [6]: 3.2 ± 0.6 µM
- Kd [7]: 0.27 ± 0.03 µM
- Kd [8]: 0.26 ± 0.02 µM

B1: alanine:glyoxylate aminotransferase, native dimeric form encoded by the major allele (DMa), recombinant purified (enzyme, human, UniProt P21549 1-392, looked up)
chain: T2 sequence (P21549 1-392 P11L/R118A/F238S/F240S/I340M) with L11P, A118R, S238F, S240F, M340I
notes: human alanine:glyoxylate aminotransferase (AGT), major allele (Pro11, Ile340); bacterial construct pAGT-Ma; Homodimer in its native state; Used as apo-form and as holo-form (with PLP); also called AGT; AGT-Ma; source: E. coli BL21(DE3), purified (HisPrep FF)
- Kd [9]: < 0.3 µM
- Kd [10]: < 0.3 µM

B2: alanine:glyoxylate aminotransferase, native dimeric form encoded by the minor allele (DMi), recombinant purified (enzyme, human, UniProt P21549 1-392, looked up)
chain: T2 sequence (P21549 1-392 P11L/R118A/F238S/F240S/I340M) with A118R, S238F, S240F
notes: human alanine:glyoxylate aminotransferase (AGT), minor allele (Pro11Leu, Ile340Met); bacterial construct pAGT-Mi; Homodimer in its native state; Used as apo-form and as holo-form (with PLP); also called AGT-Mi; source: E. coli BL21(DE3), purified (HisPrep FF)
- Kd [9]: < 0.3 µM
- Kd [10]: < 0.3 µM

B3: artificial monomeric form of alanine:glyoxylate aminotransferase on the minor allele (MMi), R118A/F238S/F240S, recombinant purified (enzyme, human, UniProt P21549 1-392, looked up)
chain: T2 sequence (P21549 1-392 P11L/R118A/F238S/F240S/I340M)
notes: human alanine:glyoxylate aminotransferase (AGT), minor allele (Pro11Leu, Ile340Met), with the interfacial mutations R118A/F238S/F240S on pAGT-Mi; Used as apo-form and as holo-form (with PLP); source: E. coli BL21(DE3), purified (HisPrep FF)
- Kd [9]: 9.4 ± 0.5 µM
- Kd [10]: 80 ± 1 µM
